In paper PMC12607393:

Tests used:
[1] = target: Galactia lindenii Type I lectin (GLL-I) (Galactia lindenii); assay: SDS-PAGE of heated sample; purified GLL-I (15 ug per lane) in SDS + DTT with heating (reducing conditions); Coomassie staining
[2] = target: Galactia lindenii Type I lectin (GLL-I) (Galactia lindenii); assay: SDS-PAGE of unheated sample; purified GLL-I (15 ug per lane) in SDS without heating, with or without DTT; Coomassie staining

stoichiometry N [1]: 2
stoichiometry N [2]: 4
Substance: Galactia lindenii Type I lectin (GLL-I) (natural protein)
